Experimental data: the RNAGym collection of RNA variant scans (doi:10.1073/pnas.2313332121)

B1: TPR t1 (parent)
chain: GACCAAUCUGCCCUCAGAGCUCGAGAACAUCUUCGGAUGCAGAGGAGGCAGGCUUCGGUGGCGCGAUAGCGCCAACGUCCUCAACCUCCAAUGCAUCCCACCACAUGAUGAUGCCUGAAGAGCCUUGGUUUUUUG

Variants of: B1
Test: polymerase ribozyme fitness, log enrichment relative to wild type (log ratio); higher = more active; in vitro selection for triplet polymerase activity
Procedure, shortened: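 Libraries of mutants in each subunit of a heterodimeric triplet polymerase ribozyme were generated by PCR and transcribed. In triplicate, each went through one in vitro selection round: annealing with biotinylated primer, partner subunit and triplets; frozen incubation at −7 °C; gel excision of extended constructs; streptavidin-bead capture; RT-PCR. Fitness, taken from Illumina sequencing of input and output libraries, is the logarithm of a genotype's enrichment over wild-type enrichment, averaged across replicates with inverse-variance weights. The logarithm is base 2, and genotypes needed ≥10 input reads and ≥1 read per output to be kept.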

Variant	polymerase ribozyme fitness (log ratio)
A6C C114U	-2.3
A6G C11U	-0.107
A6C C88G C115G	-4.52
A6C U7G A29G G48C G61A A95C	-2.21
U7A C89U	-0.565
A6C G77A	-0.571
A6U G44A G63C G113U	-5.44
A6G C101A C115G	-1.96
A6U A18U C28U C70A C123G	-6.38
A6G C12U	-0.282
A6U G58A U81A G110A A118C	-2.44
A6G G63U C73G C102A G110U C115G	-6.75
A6G C76A C79A G120C	0.0381
A6C G39U G63A	-1.63
A6C G10A C15A G25A A43U G45C C86G U106G G113U	-7.45
U7A G60U	0.564
A5U C104U U112A G120U	-0.575
U7A G93C	-0.696
A6C A16U C70U C104A	-4.73
A6U C11G U112A U126A	1.81
A6U U14A C86A U96A	-6.24
A6G G61C C79A U112G C114U	-6.62
A6C A37C A111U	-3.49
A6U G71A A83G	-1.85

Variant	polymerase ribozyme fitness (log ratio)
A6U A90U C114A U116G	-3.49
A6G G10A C11U G61A A100U G128A	-2.69
A6U C49U G60U C94G G113A	-2.65
U7A C8A C11U C34U G48U C53A C72A	-5.13
A6U A37U U112A U130A	0.657
A6G G47A C53U U59C	-1.37
U7A C12U C62A G113C	-3.19
A6G C13A G17A A95G	-3.46
A6G G113A	-0.703
A5U U54G	-0.237
A6U C11U C28U C34A C73A G110A	0.315
A6G C62A	-0.491
A6C G52A U81C A121C C123A	-0.955
A6U G61A C79G	-1.4
A6G G10U C56U C94U G135U	-1.99
A5U G17C A18U C20U A46C U59A A121G G127C	-5.48
A6C U78C A100U G120A U131C	-0.187
A6U C11A C13G G47A G48A A74C A118G	-5.36
A6C C13A A37U C82U	-2.7
A6U G63C C80U G93C U106A	-3.58
A5U G69C	-2.22
U7A C11A U81A	-1.32
A6C C53U A74G C80U A118G	-1.6
A6U C102A G128A	-4.03

Variant	polymerase ribozyme fitness (log ratio)
A6U C88U G128A	-2.51
A5U G17C G23A C115G U131C	-5.42
A6U C115U A119U U130G	-1.27
A5U G47A C101U	-1.94
A5U G110A	-1
A6C C11G G36U C40G U106A U130A	-4.89
A6G A24G G36U C49A	-3.79
A6U U9C U55C A75G A95C G110A	-1.37
A5U C97G C115U G127A	-6.94
A5U U7A C15A G44A C56A G60A	-3.35
A5U G51U	-3.03
A5U G117C	-2.92
A5U G19A G69U C72G U112G	-3.83
A6U G61U	-0.0436
A5U U7G G47A C72A	-0.365
U7A C13G G63U G93A C102G C115U A121G	-7.01
A6U A26G C79U	-2.88
U7A C8A G19U C97G A105G C124U	-7.51
A6U U92G	-2.92
A6U C12A G48U U106G	-1.45
A6C C53G G57A C73A C79G G113C	-4.89
A5U G35C	-4.38
A5U G35U	-5.72
A5U U130G	-0.49

Variant	polymerase ribozyme fitness (log ratio)
A6C C53G C72A C123U U133C	0.968
U7A A74G	-0.408
A6U G47A C70U C94U	-1.74
A6C C76G U81C C85U C99U	-5.11
A6C A50C U59C C72U U92G	-4.39
A6U G58C G63U C64A A119U	-6.07
A6G C11U A29G G52A C76A C85A U125G	-5.55
U7A C20G U78C	-4.76
U7A G10C A90U C101A	-4.34
A6G C70A C97U	-1.59
A6U	0.173
A6G	0.335
A6C	-0.236
A6U G17C U130A	-4.89
U7A A16C C115A	-2.49
A6G C13U C102U G122A	-2.62
A6G G71A G120C	0.128
U7A G60U C104A U125A	-1.13
A6U C22A C49U C72U	-5.16
A6C C8G C72A	0.431
A6U C8G C34U C53U C82U A84C	-4.3
A6U C11A C62G G120A	-2.04
A6U C53U	0.192
A6G G51A A75U C88G U92C	-6.38

Variant	polymerase ribozyme fitness (log ratio)
A6U U9G G63C C104U C115U G117U	-1.31
U7A C20U	-0.343
A6G C12A A50G G120A	2.01
U7A C8G A43C C53A G69U	-0.446
A6G G47U G71A	-2.24
A6G A18G U129A U133A G135U	-5.44
A6C U78A C94G U106G	-3.64
A6G A121C	2.2
U7A C70U C115A	0.524
A6C G48A G71U C82A	-1
A6U C12U C80U	-0.107
A6G C8G G10U C76A G117C C124A	-2.05
A6U C40A G60U A105C	-4.4
A6U G48A A91C C114A	-2.36
A6U C8A G71C C115A U116A A121G U131A	-2.72
A6U C8G G44U C49A C72A G77U G120C U130G	-1.84
A6G G10U A43C G71A	-4.79
U7A C73G U129G	-2.6
A5U G47U	-1.29
A6U C13G C56U G77C	-1.6
A6U C53U G61C G77C C104A	-2.75
A6U G128A	-2.02
A6G C8A U9G	0.0967
A6U A18G C20U C73G U125A	-2.1

Variant	polymerase ribozyme fitness (log ratio)
A6U U78A C115G U116G	-2.95
A6U G63C C80A	-3.25
A6G G48C C72A	0.333
A5U U7A C40G U55G C56U G60A U130C	-1.94
A5U U38G A74G	-1.15
A6C U9G	-0.665
A6U C15A G51C G71U C124U	-5.41
A6G C11G G17C G36C C97U	-5.22
A6U G10U C12U C15G C72G C86A	-3.18
A6U C73G	-1.46
A6C C73G G93U G128U	-5.16
A6U U9G G63A C104U C115U G117U	-3.69
A6U C115U	-1.06
A6G A18U	-1.31
A6U G71A	-0.461
A6U G71U	-0.239
A6C C8G U92G A121C C123G	0.289
A6G C8A U55A	0.109
A6U C40G G42C C76A C94U U112C G122A	-2.22
A5U G44A C56A C124A G128U U132G U133C	-2.5
A5U G10A A41G G61A C101U U133G	-0.742
U7A G45U C56G A66G	-3.29
A6C A100U	-0.814
A6U C98U U112G	-3.5

Variant	polymerase ribozyme fitness (log ratio)
U7A A43C U129G	-4.22
A6G G19A A43U C123A G128A	-5.55
A6U G120C	1.12
A6U G120U	-0.0286
A6U C20U U21G G69C A121U	-0.95
A6C C40U G44A A121U	0.36
A6C U78A	0.00944
A6U C11G	0.392
A6U C80A A95U G120A U130G	-3.72
A6C C53G G69U	0.253
A6C G35U A83U C98G A121U	-4.12
A6G C11G C12U C40G G44U G93A	-2.75
U7A A66G U87C C94U G110U	-2.5
A6G C49G G51U C73G U133A	-2.49
U7A C56G U92C	-1.74
A6C U9A C15G G45A C62U C104A C124G	-3.99
U7A G19U C73G U92A	-4.76
A6U C40U C123A	0.808
A5U G51A G113A C124A	-3.34
A6G U21C G61C C114A	-3.62
A6G U7G A18C G52U U81A C115G	-4.51
A6C U131A	-0.317
A5U C85A C88U A100U A111G	-2.1
